Data: publication PMC10980349 (The Plant Cell, 2023)
Each block holds one binder with its values, some of them ahead of it.

Legend:
[1] = biological target: microtubules assembled from porcine tubulin (porcine) (UniProt P02550); assay: co-sedimentation
SEC-MALS = biological target: the molecule itself; assay: SEC-MALS

- Kd [1]: 17.4 µM
B1: SPR2(1 to 500)-GFP (domain or fragment)
chain: MSTPTTSGSAAKPTRPARSSSLATRSCSNSGSLTSFQAMVELKQKILTSISKLADRDTYQIAVEDLEKTIQSLTPETLPMFLNCLYDSCSDPKPAVKKECLHLLSYVCSLHCDSTAAHLTKIIAQIVKRLKDSDSGVRDACRDTIGALSGIYLKGKEEGTNTGSASLAVGLFVKPLFEAMGEQNKVVQSGASMCMARMVESAASPPVTSFQKLCPRICKLLSNSSFLAKASLLPVVSSLSQVGAIAPQSLESLLESIHDCLGSTDWVTRKAAAETLTALASHSSGLIKEKTDSTITVLETCRFDKIKPVRESVTEALQLWKKISGKYVDGASDDSKLSASEQLGSEKNGEKRSNLADLMKKEASDGSTLSPDSASKGKGCFPEKAVGLLKKKAPVLSDKDFNPEFFQRLERRQSVEVVVPRRCKNNDEEESGLDDLNAMGSSNRLKNTQADDKQVKGRFDGNGSQARTSGDDKAGVVNGKETPGHHAPVSNTDNQSEGSF

B2: full-length SPR2 (SEC-MALS sample) (natural protein, Arabidopsis thaliana, UniProt Q9T041 1-864, looked up)
chain: MSTPTTSGSAAKPTRPARSSSLATRSCSNSGSLTSFQAMVELKQKILTSISKLADRDTYQIAVEDLEKTIQSLTPETLPMFLNCLYDSCSDPKPAVKKECLHLLSYVCSLHCDSTAAHLTKIIAQIVKRLKDSDSGVRDACRDTIGALSGIYLKGKEEGTNTGSASLAVGLFVKPLFEAMGEQNKVVQSGASMCMARMVESAASPPVTSFQKLCPRICKLLSNSSFLAKASLLPVVSSLSQVGAIAPQSLESLLESIHDCLGSTDWVTRKAAAETLTALASHSSGLIKEKTDSTITVLETCRFDKIKPVRESVTEALQLWKKISGKYVDGASDDSKLSASEQLGSEKNGEKRSNLADLMKKEASDGSTLSPDSASKGKGCFPEKAVGLLKKKAPVLSDKDFNPEFFQRLERRQSVEVVVPRRCKNNDEEESGLDDLNAMGSSNRLKNTQADDKQVKGRFDGNGSQARTSGDDKAGVVNGKETPGHHAPVSNTDNQSEGSFTSNRGNWSAIQRQLLQLERQQTNLMNMLQEFIGGSHDSMVTLEGRVRGLERIVEDMARDLSISSGRRANLTAGFGKYNSFANYPTGKYNGRAPGERGSQTDGAMRGRMWNSDMADDWFIPPHAASRNGQAGPRRSPRSEQYENEHMGNGRRGWDNKASGTIRFGEGPSARSVWQASKDEATLEAIRVAGEDGAVPRPTRVAVAPEAEAMGDDDNEGQERDPIWVSWSNAMHSLRVGDIDAAYAEVLCAGDQHLVIKLMDKTGPSLDQMSNEIANEALNFISQFLLDHSLYDICLSWSQQLLELVLQDGADTFGVPMELKTEILYNLQDACSTMDPPEDWEGPAPEQLVVQLASVWEIDLQQFDK
- stoichiometry N (SEC-MALS): 4
